These are literature values, as cited in US20250222125A1, “Anti-FGFR2b Antibodies, Conjugates and Methods of Use” (BeiGene, Ltd., priority 2024, published 2025).

For the series the following is noted: clinical trial, terminated early; cited from earlier work.

B1: Aprutumab ixadotin: FGFR2 antibody conjugated to auristatin (conjugate, chains of the INN, looked up)
VH: EVQLLESGGGLVQPGGSLRLSCAASGFTFSSYAMSWVRQAPGKGLEWVSAISGSGTSTYYADSVKGRFTISRDNSKNTLYLQMNSLRAEDTAVYYCARVRYNWNHGDWFDPWGQGTLVTVSS
VL: QSVLTQPPSASGTPGQRVTISCSGSSSNIGNNYVSWYQQLPGTAPKLLIYENYNRPAGVPDRFSGSKSGTSASLAISGLRSEDEADYYCSSWDDSLNYWVFGGGTKLTVL
modifications: auristatin payload conjugate
notes: FGFR2 antibody conjugated to auristatin
On to B1, for which the “tolerability in clinical testing” value is given as “poorly tolerated”.
